Laboratory results published in article PMC10751729 (Protein Science : A Publication of the Protein Society, 2024).

Target: GST‐LC3B (human, UniProt Q9GZQ8 1-120)
Assay: AlphaScreen or HTRF

B1: LIRtide (peptide)
peptide: SGGDDDWTHLS
  IC50: 1700 nM
